Article PMC3366955

Key:
[1] = SEC-MALS
[2] = target: recombinant 42 kDa processed form of the P. falciparum merozoite surface protein 1, FVO allele (MSP1_(42)-FVO) (Plasmodium falciparum); experiment: SEC-MALS

| Substance | percent of the total peak area as aggregate [1] | percent of the protein as dimers [2] [%] | percent of the protein as multimers [2] [%] | stoichiometry N [2] |
| --- | --- | --- | --- | --- |
| recombinant 42 kDa processed form of the P. falciparum merozoite surface protein 1, FVO allele (MSP1_(42)-FVO) | approximately 1.7 MDa for 96% of the total peak area |  |  |  |
| recombinant 42 kDa processed form of the P. falciparum merozoite surface protein 1, FVO allele (MSP1_(42)-FVO) (domain or fragment) |  | 72 | 28 | 2 |
